B1: Glutaryl-CoA dehydrogenase, mitochondrial (Homo sapiens), Q92947 (parent)
chain: MALRGVSVRLLSRGPGLHVLRTWVSSAAQTEKGGRTQSQLAKSSRPEFDWQDPLVLEEQLTTDEILIRDTFRTYCQERLMPRILLANRNEVFHREIISEMGELGVLGPTIKGYGCAGVSSVAYGLLARELERVDSGYRSAMSVQSSLVMHPIYAYGSEEQRQKYLPQLAKGELLGCFGLTEPNSGSDPSSMETRAHYNSSNKSYTLNGTKTWITNSPMADLFVVWARCEDGCIRGFLLEKGMRGLSAPRIQGKFSLRASATGMIIMDGVEVPEENVLPGASSLGGPFGCLNNARYGIAWGVLGASEFCLHTARQYALDRMQFGVPLARNQLIQKKLADMLTEITLGLHACLQLGRLKDQDKAAPEMVSLLKRNNCGKALDIARQARDMLGGNGISDEYHVIRHAMNLEAVNTYEGTHDIHALILGRAITGIQAFTASK
partner: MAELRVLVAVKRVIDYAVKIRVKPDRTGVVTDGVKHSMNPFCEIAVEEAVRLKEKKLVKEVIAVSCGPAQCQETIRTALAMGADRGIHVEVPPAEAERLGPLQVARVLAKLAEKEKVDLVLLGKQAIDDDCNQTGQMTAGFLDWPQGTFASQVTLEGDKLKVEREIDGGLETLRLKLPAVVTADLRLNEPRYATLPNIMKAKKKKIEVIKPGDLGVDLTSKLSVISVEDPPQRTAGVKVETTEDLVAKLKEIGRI

Variants of: B1
Conditions: with etfb_human ETFB

Variant	effect of a mutation on the interaction
MALRGVSVRLLSRGPGLHVLRTWVSSAAQTEKGGRTQSQLAKSSRPEFDWQDPLVLEEQLTTDEILIRDTFRTYCQERLMPRILLANRNEVFHREIISEMRELGVLGPTIKGYGCAGVSSVAYGLLARELERVDSGYRSAMSVQSSLVMHPIYAYGSEEQRQKYLPQLAKGELLGCFGLTEPNSGSDPSSMETRAHYNSSNKSYTLNGTKTWITNSPMADLFVVWARCEDGCIRGFLLEKGMRGLSAPRIQGKFSLRASATGMIIMDGVEVPEENVLPGASSLGGPFGCLNNARYGIAWGVLGASEFCLHTARQYALDRMQFGVPLARNQLIQKKLADMLTEITLGLHACLQLGRLKDQDKAAPEMVSLLKRNNCGKALDIARQARDMLGGNGISDEYHVIRHAMNLEAVNTYEGTHDIHALILGRAITGIQAFTASK [G101R]	increasing interaction strength
MALRGVSVRLLSRGPGLHVLRTWVSSAAQTEKGGRTQSQLAKSSRPEFDWQDPLVLEEQLTTDEILIRDTFRTYCQERLMPRILLANRNEVFHREIISEMGELGVLGPTIKGHGCAGVSSVAYGLLARELERVDSGYRSAMSVQSSLVMHPIYAYGSEEQRQKYLPQLAKGELLGCFGLTEPNSGSDPSSMETRAHYNSSNKSYTLNGTKTWITNSPMADLFVVWARCEDGCIRGFLLEKGMRGLSAPRIQGKFSLRASATGMIIMDGVEVPEENVLPGASSLGGPFGCLNNARYGIAWGVLGASEFCLHTARQYALDRMQFGVPLARNQLIQKKLADMLTEITLGLHACLQLGRLKDQDKAAPEMVSLLKRNNCGKALDIARQARDMLGGNGISDEYHVIRHAMNLEAVNTYEGTHDIHALILGRAITGIQAFTASK [Y113H]	increasing interaction strength
MALRGVSVRLLSRGPGLHVLRTWVSSAAQTEKGGRTQSQLAKSSRPEFDWQDPLVLEEQLTTDEILIRDTFRTYCQERLMPRILLANRNEVFHREIISEMGELGVLGPTIKGYGCARVSSVAYGLLARELERVDSGYRSAMSVQSSLVMHPIYAYGSEEQRQKYLPQLAKGELLGCFGLTEPNSGSDPSSMETRAHYNSSNKSYTLNGTKTWITNSPMADLFVVWARCEDGCIRGFLLEKGMRGLSAPRIQGKFSLRASATGMIIMDGVEVPEENVLPGASSLGGPFGCLNNARYGIAWGVLGASEFCLHTARQYALDRMQFGVPLARNQLIQKKLADMLTEITLGLHACLQLGRLKDQDKAAPEMVSLLKRNNCGKALDIARQARDMLGGNGISDEYHVIRHAMNLEAVNTYEGTHDIHALILGRAITGIQAFTASK [G117R]	decreasing interaction strength
MALRGVSVRLLSRGPGLHVLRTWVSSAAQTEKGGRTQSQLAKSSRPEFDWQDPLVLEEQLTTDEILIRDTFRTYCQERLMPRILLANRNEVFHREIISEMGELGVLGPTIKGYGCAGVSSVAYGLLARELERVDSGYRSAMSVQSSLVMHPIYAYGSEEQRQKYLPQLAKGELLGCFGLTEPNSGSDPSSMETRAHYNSSNKSYTLNGTKTWITNSLMADLFVVWARCEDGCIRGFLLEKGMRGLSAPRIQGKFSLRASATGMIIMDGVEVPEENVLPGASSLGGPFGCLNNARYGIAWGVLGASEFCLHTARQYALDRMQFGVPLARNQLIQKKLADMLTEITLGLHACLQLGRLKDQDKAAPEMVSLLKRNNCGKALDIARQARDMLGGNGISDEYHVIRHAMNLEAVNTYEGTHDIHALILGRAITGIQAFTASK [P217L]	decreasing interaction strength
MALRGVSVRLLSRGPGLHVLRTWVSSAAQTEKGGRTQSQLAKSSRPEFDWQDPLVLEEQLTTDEILIRDTFRTYCQERLMPRILLANRNEVFHREIISEMGELGVLGPTIKGYGCAGVSSVAYGLLARELERVDSGYRSAMSVQSSLVMHPIYAYGSEEQQQKYLPQLAKGELLGCFGLTEPNSGSDPSSMETRAHYNSSNKSYTLNGTKTWITNSPMADLFVVWARCEDGCIRGFLLEKGMRGLSAPRIQGKFSLRASATGMIIMDGVEVPEENVLPGASSLGGPFGCLNNARYGIAWGVLGASEFCLHTARQYALDRMQFGVPLARNQLIQKKLADMLTEITLGLHACLQLGRLKDQDKAAPEMVSLLKRNNCGKALDIARQARDMLGGNGISDEYHVIRHAMNLEAVNTYEGTHDIHALILGRAITGIQAFTASK [R161Q]	increasing interaction strength
MALRGVSVRLLSRGPGLHVLRTWVSSAAQTEKGGRTQSQLAKSSRPEFDWQDPLVLEEQLTTDEILIRDTFRTYCQERLMPRILLANRNEVFHREIISEMGELGVLGPTIKGYGYAGVSSVAYGLLARELERVDSGYRSAMSVQSSLVMHPIYAYGSEEQRQKYLPQLAKGELLGCFGLTEPNSGSDPSSMETRAHYNSSNKSYTLNGTKTWITNSPMADLFVVWARCEDGCIRGFLLEKGMRGLSAPRIQGKFSLRASATGMIIMDGVEVPEENVLPGASSLGGPFGCLNNARYGIAWGVLGASEFCLHTARQYALDRMQFGVPLARNQLIQKKLADMLTEITLGLHACLQLGRLKDQDKAAPEMVSLLKRNNCGKALDIARQARDMLGGNGISDEYHVIRHAMNLEAVNTYEGTHDIHALILGRAITGIQAFTASK [C115Y]	increasing interaction strength
MALRGVSVRLLSRGPGLHVLRTWVSSAAQTEKGGRTQSQLAKSSRPEFDWQDPLVLEEQLTTDEILIRDTFRTYCQERLMPRILLANRNEVFHREIISEMGELGVLGPTIKGYGCAGVLSVAYGLLARELERVDSGYRSAMSVQSSLVMHPIYAYGSEEQRQKYLPQLAKGELLGCFGLTEPNSGSDPSSMETRAHYNSSNKSYTLNGTKTWITNSPMADLFVVWARCEDGCIRGFLLEKGMRGLSAPRIQGKFSLRASATGMIIMDGVEVPEENVLPGASSLGGPFGCLNNARYGIAWGVLGASEFCLHTARQYALDRMQFGVPLARNQLIQKKLADMLTEITLGLHACLQLGRLKDQDKAAPEMVSLLKRNNCGKALDIARQARDMLGGNGISDEYHVIRHAMNLEAVNTYEGTHDIHALILGRAITGIQAFTASK [S119L]	decreasing interaction strength
MALRGVSVRLLSRGPGLHVLRTWVSSAAQTEKGGRTQSQLAKSSRPEFDWQDPLVLEEQLTTDEILIRDTFRTYCQERLMPRILLANRNEVFHLEIISEMGELGVLGPTIKGYGCAGVSSVAYGLLARELERVDSGYRSAMSVQSSLVMHPIYAYGSEEQRQKYLPQLAKGELLGCFGLTEPNSGSDPSSMETRAHYNSSNKSYTLNGTKTWITNSPMADLFVVWARCEDGCIRGFLLEKGMRGLSAPRIQGKFSLRASATGMIIMDGVEVPEENVLPGASSLGGPFGCLNNARYGIAWGVLGASEFCLHTARQYALDRMQFGVPLARNQLIQKKLADMLTEITLGLHACLQLGRLKDQDKAAPEMVSLLKRNNCGKALDIARQARDMLGGNGISDEYHVIRHAMNLEAVNTYEGTHDIHALILGRAITGIQAFTASK [R94L]	increasing interaction strength
MALRGVSVRLLSRGPGLHVLRTWVSSAAQTEKGGRTQSQLAKSSRPEFDWQDPLVLEEQLTTDEILIRDTFRTYCQERLMPRILLANRNEVFHREIISEMGELGVLGPTIKGYGCAGVSSVAYGLLARELERVDSGYRSAMSVQSSLVMHPIYAHGSEEQRQKYLPQLAKGELLGCFGLTEPNSGSDPSSMETRAHYNSSNKSYTLNGTKTWITNSPMADLFVVWARCEDGCIRGFLLEKGMRGLSAPRIQGKFSLRASATGMIIMDGVEVPEENVLPGASSLGGPFGCLNNARYGIAWGVLGASEFCLHTARQYALDRMQFGVPLARNQLIQKKLADMLTEITLGLHACLQLGRLKDQDKAAPEMVSLLKRNNCGKALDIARQARDMLGGNGISDEYHVIRHAMNLEAVNTYEGTHDIHALILGRAITGIQAFTASK [Y155H]	increasing interaction strength
MALRGVSVRLLSRGPGLHVLRTWVSSAAQTEKGGRTQSQLAKSSRPEFDWQDPLVLEEQLTTDEILIRDTFRTYCQERLMPRILLANRNKVFHREIISEMGELGVLGPTIKGYGCAGVSSVAYGLLARELERVDSGYRSAMSVQSSLVMHPIYAYGSEEQRQKYLPQLAKGELLGCFGLTEPNSGSDPSSMETRAHYNSSNKSYTLNGTKTWITNSPMADLFVVWARCEDGCIRGFLLEKGMRGLSAPRIQGKFSLRASATGMIIMDGVEVPEENVLPGASSLGGPFGCLNNARYGIAWGVLGASEFCLHTARQYALDRMQFGVPLARNQLIQKKLADMLTEITLGLHACLQLGRLKDQDKAAPEMVSLLKRNNCGKALDIARQARDMLGGNGISDEYHVIRHAMNLEAVNTYEGTHDIHALILGRAITGIQAFTASK [E90K]	increasing interaction strength
MALRGVSVRLLSRGPGLHVLRTWVSSAAQTEKGGRTQSQLAKSSRPEFDCQDPLVLEEQLTTDEILIRDTFRTYCQERLMPRILLANRNEVFHREIISEMGELGVLGPTIKGYGCAGVSSVAYGLLARELERVDSGYRSAMSVQSSLVMHPIYAYGSEEQRQKYLPQLAKGELLGCFGLTEPNSGSDPSSMETRAHYNSSNKSYTLNGTKTWITNSPMADLFVVWARCEDGCIRGFLLEKGMRGLSAPRIQGKFSLRASATGMIIMDGVEVPEENVLPGASSLGGPFGCLNNARYGIAWGVLGASEFCLHTARQYALDRMQFGVPLARNQLIQKKLADMLTEITLGLHACLQLGRLKDQDKAAPEMVSLLKRNNCGKALDIARQARDMLGGNGISDEYHVIRHAMNLEAVNTYEGTHDIHALILGRAITGIQAFTASK [W50C]	increasing interaction strength
MALRGVSVRLLSRGPGLHVLRTWVSSAAQTEKGGRTQSQLAKSSRPEFDWQDPLVLEEQLTTDEILIRDTFRTYCQERLMPRILLANRNEVFHREIISEMGELGVLGPTIKGYGCAGVSSVAYGLLARELERVDSGYRSAMSVQSSLVMHPIYAYGSEEQRQKYLPQLAKGELLGCFGLTEPNSGSDPSSMETRAHYNSSNKSYTLNGTKTWITNSPMADLFVVWAPCEDGCIRGFLLEKGMRGLSAPRIQGKFSLRASATGMIIMDGVEVPEENVLPGASSLGGPFGCLNNARYGIAWGVLGASEFCLHTARQYALDRMQFGVPLARNQLIQKKLADMLTEITLGLHACLQLGRLKDQDKAAPEMVSLLKRNNCGKALDIARQARDMLGGNGISDEYHVIRHAMNLEAVNTYEGTHDIHALILGRAITGIQAFTASK [R227P]	increasing interaction strength
MALRGVSVRLLSRGPGLHVLRTWVSSAAQTEKGGRTQSQLAKSSRPEFDWQDPLVLEEQLTTDEILIRDTFRTYCQERLMPRILLANCNEVFHREIISEMGELGVLGPTIKGYGCAGVSSVAYGLLARELERVDSGYRSAMSVQSSLVMHPIYAYGSEEQRQKYLPQLAKGELLGCFGLTEPNSGSDPSSMETRAHYNSSNKSYTLNGTKTWITNSPMADLFVVWARCEDGCIRGFLLEKGMRGLSAPRIQGKFSLRASATGMIIMDGVEVPEENVLPGASSLGGPFGCLNNARYGIAWGVLGASEFCLHTARQYALDRMQFGVPLARNQLIQKKLADMLTEITLGLHACLQLGRLKDQDKAAPEMVSLLKRNNCGKALDIARQARDMLGGNGISDEYHVIRHAMNLEAVNTYEGTHDIHALILGRAITGIQAFTASK [R88C]	increasing interaction strength

From IntAct's records for PubMed 28062662
